The values that follow come from patent US20190000969A1 (AbbVie / Abbott, published 2019).

First the molecules themselves.
T1: human UPK1B (hUPK1B) protein, full length, on the cell surface (human, UniProt O75841 1-260)
T1 sequence: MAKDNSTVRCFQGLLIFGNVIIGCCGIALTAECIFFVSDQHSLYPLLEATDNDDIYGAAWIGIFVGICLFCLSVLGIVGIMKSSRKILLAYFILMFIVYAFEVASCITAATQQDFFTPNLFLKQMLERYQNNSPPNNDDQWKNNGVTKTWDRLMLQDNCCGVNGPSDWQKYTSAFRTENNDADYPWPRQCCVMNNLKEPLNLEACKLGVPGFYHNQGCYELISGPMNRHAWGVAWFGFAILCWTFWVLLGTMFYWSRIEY

T2: hUPK1B(108-229)-Fc, second extracellular domain of human UPK1B fused to human IgG2 Fc (human, UniProt O75841 108-229)
T2 construct: Expressed behind an IgK signal peptide, which is not part of the secreted protein; also called hUPK1B-Fc; Fc-fusion human UPK1B protein; not shown: human IgG2 Fc protein
T2 sequence: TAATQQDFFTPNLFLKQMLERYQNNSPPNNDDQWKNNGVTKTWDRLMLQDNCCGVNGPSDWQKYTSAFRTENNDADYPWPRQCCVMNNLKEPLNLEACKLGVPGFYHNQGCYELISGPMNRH

B1: SC115.65 (antibody, IgG2a, V domains shown)
VH: EVQLQQSGPELVKPGASVKISCKASGYSFTGYFMNWVMQSHGKSLEWIGRINPYNGDTFYNQKFKGKATLTVDKSSNTAHMELRSLASEDSGVYYCAGHNNYGVSWGQGTTLTVSS
VL: DVLMTQTPLSLPVSLGDQASISCRSSQIIVHSNGNTYLEWYLQKPGQSPKLLIYKVSNRFSGVPDRFSGSGSGTDFTLKISRVEAEDLGVYYCFQGSHLPYTFGGGTKLEIK
B2: SC115.13 (antibody, IgG1, V domains shown)
VH: QILLVQSGPELKKPGETVKISCKASGYTFTNYGMNWVKQAPGKGLKWMGWINTKTGVPTYPDDFKGRFAFSLETSASTAYLQISNLKDEDTATYFCTRGESFFSFAFWGQGTLVAVSA
VL: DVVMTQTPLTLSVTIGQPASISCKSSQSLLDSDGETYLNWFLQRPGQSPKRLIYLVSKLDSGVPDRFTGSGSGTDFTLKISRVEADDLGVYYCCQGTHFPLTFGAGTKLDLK
B3: SC115.52 (antibody, IgG1, V domains shown)
VH: QILLVQSGPELKKPGETVKISCKASGYTFTNLGMNWVKQAPGKGLKWMGWINTYTGDPTYVDDFKGRFAFSLETSASTAYLQISNLKNEDTATYFCTRGEKFYSFAYWGQGTLVTVSA
VL: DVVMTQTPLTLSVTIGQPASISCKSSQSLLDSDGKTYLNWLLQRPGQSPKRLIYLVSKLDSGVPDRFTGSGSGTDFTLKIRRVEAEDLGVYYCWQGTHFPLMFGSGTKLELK
B4: SC115.48 (antibody, V domains shown)
VH: EVQLVETGGGLVQPKGSLKLSCAASGLSFNTYAMNWVRQAPGKGLEWVARIRSKSNNYATYYADSVKDRFTISRDDSQSMLYLQMNNLKTEDTAMYYCVTSLFDYWGQGTTLTVSS
VL: QLVVTQSSSASFSLGASAKLTCTLSSQHSTYTIEWYQQQPLKPPKYVMELKKDGSHSTGDGIPDRFSGSSSGADRYLSISNMQPEDEAIYICGVGEAIKEQFVYVFGGGTKVTVL
B5: SC115.18 (antibody, V domains shown)
VH: QVQLQQPGAELVRPGSSVKLSCKASGYTFTSYWMHWVKQRPMQGLEWIGNIDPSDSEIYYNQKFKDKATLTVDKSSGTAYMQLSSLTSEDSAVYYCARRSGSRDYYGMDDWGQGTSVTVSS
VL: DIVMTQSPSSLTVTAGEKVTMRCKSSQSLLNSGNQKNYLTWYQQKPGQPPKLLISWASTRDSGVPDRFTGSGSRTDFILTISSVQAEDLAVYYCQNDYSYPLTFGAGTKLELK
B6: SC115.7 (antibody, V domains shown)
VH: EVQLQQSGAELVRPGASVKLSCTASGFNIKDSFIHWVKKRPEEGLEWIGWIDPEDGETKYAPKFQDKATITADTSSNTAYLQLSSLTSEDTAIYYCARRERFYGIYYALDYWGQGTSVTVSS
VL: DIVMTQSPSSLTVTAGEKVTMSCKSSQSLLNSGNQKNYLTWYQQKLGQPPKLLIYWASTRESGVPDRFTGSGSGTDFTLTISSVQAEDLAVYYCQNDYSNPFTFGSGTKLEIK
B7: SC115.9 (antibody, IgG2a, V domains shown)
VH: QVQLQQPGAELVKPGASVKMSCKASGYTFTSNWMHWVKQRPGQGLEWIGVIDPSDTYISYNQKFKGKATLTVDTSSSTAYMQLSSLTSEDSAVYYCTRRDSGWYFDVWGAGTTVTVSS
VL: DIVMTQSPSSLTVTAGEKVTMSCKSSQSLLNSGNQKNYLTWYQQKPGQPPKLLIYWASTRESGVPDRFTGSGSGTDFTLTISSVQAEDLAVYYCQNDYSYPLTFGAGTKLELK
B8: SC115.19 (antibody, IgG2a, V domains shown)
VH: QITLKESGPGILQPSQTLSLTCSFSGFSLSTSGMGVGWIRQPSGKGLEWLANIWWNDDQYYNPPLKSRLTVSKDTSKTQVFLKIAHVDTADTATYYCARIYSGNYGAMDYWGQGTSVTVSS
VL: DIVMTQAAFSNPVTLGTSASISCRSSKSLLHSNGITYLYWYLQKPGQSPQLLIYQMSSLASGVPDRFSSSGSGTDFTLRISRVEAEDVGVYYCAQSLELPYTFGGGTKLEIK
B9: SC115.51 (antibody, V domains shown)
VH: QVQLKQSGPGLVQPSQSLSITCTVSGFSLTNYGIHWVRQSPGKGLEWLGVIWRGGSTDYNAGFMSRLTITKDNSKSQVFFKMNSLQGDDTAIYYCAKNTGRGALDYWGQGTTLTVSS
VL: DIVMTQSPSSLAVTAGEKVTMRCKSSQSLLWSVNQNNYLSWYQQKQGQPPKLLISGASIRESWVPDRFTGSGSGTDFTLTISNVHAEDLAVYYCQHNHGSFLPYTFGGGTKLEIK
B10: SC115.4 (antibody, IgG2a, V domains shown)
VH: DVKLVESGGGLVKLGGSLKLSCAASGFTFSSYPMSWVRQTPEMRLEWVATISSGGGITYYPDSVKGRFTISRDNAKNTLSLQMNSLRSEDTAMYYCSRLYYSDYEGYMDYWGQGTSVTVSS
VL: DIVLTQSPASLAVSLGQRATISCRASKSVSTSGYSYMHWYQQKPGQPPKLLIYLASNLESGVPARFSGSGSGTDFTLNIHPVEEEDASTYYCQHSRELPLTFGAGTKLELK
B11: SC115.1 (antibody, IgG1, V domains shown)
VH: QVLLQQSGPQLVRPGASVKISCKASGYSFTSYWIHWVKQRPGQGLEWIGMIDPSDSETSFNQKFKDKATLTVDKSSSTAYMQLSSPTSEDSAVYYCARSYYASRFDYWGQGATLTVSS
VL: DIVMTQSPSSLAMSVGQKVTMNCKSSQSLLNSNNQKNYLAWYQQKPGQSPKLLVYFASTRESGVPDRFIGSGSGTDFTLTITSVQAEDLADYFCLQHYGTPLTFGAGTKLELK
B12: chimSC115.9 (Fab, V domains shown)
VH: QVQLQQPGAELVKPGASVKMSCKASGYTFTSNWMHWVKQRPGQGLEWIGVIDPSDTYISYNQKFKGKATLTVDTSSSTAYMQLSSLTSEDSAVYYCTRRDSGWYFDVWGAGTTVTVSS
VL: DIVMTQSPSSLTVTAGEKVTMSCKSSQSLLNSGNQKNYLTWYQQKPGQPPKLLIYWASTRESGVPDRFTGSGSGTDFTLTISSVQAEDLAVYYCQNDYSYPLTFGAGTKLELK
notes: also called Fab fragment (papain-digested) of chimeric SC115.9; parental chimeric antibody
B13: SC115.26 (antibody, V domains shown)
VH: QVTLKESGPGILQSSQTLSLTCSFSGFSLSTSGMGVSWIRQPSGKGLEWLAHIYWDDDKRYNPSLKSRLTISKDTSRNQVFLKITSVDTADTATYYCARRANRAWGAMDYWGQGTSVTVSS
VL: DIVMSQSPSSLAVSVGEKVTMSCKSSQSLLYSSNQKNFLAWYQQKPGQSPKLLIYWASTRESGVPDRFTGSGSGTDFTLTISSVKAEDLAIYYCQQYYYYPYTFGGGTKLEIK
B14: SC115.94 (antibody, IgG2a, V domains shown)
VH: QVQLQLSGAELVKPGASVKISCKASGYAFSSYWMNWVKQRPGKGLEWIGQIYPGDADTHYNGKFKGKATLTADKSSSTAYMQLSSLTSEDSAVYFCARLKLGRFDYWGQGTTLTVSS
VL: QLVLTQSSSASFSLGASAKLTCTLSSQHSTYTIEWYQQQPLKPPKYVMELKKDGSHNTGDGIPDRFSGSSSGADRYLSISNIQPEDEAIYICGVGYTIKEQFVYVFGGGTKVTVL
B15: SC115.32 (antibody, IgG1, V domains shown)
VH: QVQLQQPGAELVRPGSSVKLSCKASGYTFNSYWMHWVKQRPIKGLEWIGNIDPSDGETYYNQAFKDKATLTVDKSSSTAYMQLSRLTSEDSAVYYCARRGTAQATTWLGYWGQGTLVTVSA
VL: DIVMTQSPSSLTVTAGEKVTMSCKSSQSLLNSGNQKNYLTWYQQKPGQPPKLLIYWASTRESGVPDRFTGSGSGTDFTLTISSVQAEDLAVYYCQNDYSYPFTFGSGTKLEIK
B16: SC115.46 (antibody, V domains shown)
VH: QVQLQQSGPQLVRPGASVKISCKASGYSFTTSWMHWMKQRPGQGLEWIGMIDPSDSETGLNQIFRDKATLTVDKYSSTAYMQLSSPTSEDSAVYYCARRGRFSYDYGGFAYWGQGTLVTVSA
VL: DIVMTQSPSSLTVTAGEKVTMSCKSSQSLLNSGNQKNYLTWYQQKPGQTPKLLIYWASTRESGVPDRFTGSGSGTDFTLTISSVQAEDLAVYYCQNDYSNPFTFGGGTKLEIK
B17: SC115.84 (antibody, IgG2b, V domains shown)
VH: QVQLQQSGAELVKPGASVKISCETSGYTFSSYWMNWVKQRPGKGLEWIGQIDPGDGDTNYNGKFRGKATLTADKSSSTAYMQLNTLTSEDSAVYFCARSRQLRLDYWGQGTTLTVSS
VL: QIVLTQSPAIMSASPGERVTMTCSASSSVSSFYLYWYQQKSGSSPKVWIYSTSNLASGVPTRFSGSGSGTSYSLTINSMEAEDAATYYCQQWSSNPLTFGAGTKLELK
B18: SC115.90 (antibody, IgG2a, V domains shown)
VH: DVKLVESGGGFVRLGGSLKLSCAASGFTFNNYAMSWVRQTPEKRLEWVAIISRGGTKNYYPDSVKGRFTISRDNAKNTLYLQMSSLRSEDTAMYYCARLYYDDYEGYMDYWGQGTSVTVSS
VL: DIVLTQSPASLAVSLGQRATISCRASKSVSTSGYSYMHWYQQKPGQPPKLLIYLASNLESGVPARFSGSGSGTDFTLNIHPVEEEDAATYYCQHSRELPLTFGAGTRLELK
B19: SC115.36 (antibody, IgG1, V domains shown)
VH: EVQLQQSGTVVARPGASVKMSCKASGYSFTSYWMHWIKQRPGQGLDWIGSIYPGHSDATYNQRFKGKAKLTAVTSANTAYMELSSLTNEDSAVYYCSRSDGYYRGMAMDYWGQGTSVTVSS
VL: DIVLTQSPASLAVSLGQRATISCRASESVDGYGNSFMHWYRQKPGQPPKLLIYRASNLESGIPARFSGSGSRTDFALTINPVEADDVATYYCQQSYGDPRTFGGGTNLEIK

One assay has as its target T1, human UPK1B (hUPK1B) protein, full …. Briefly: cell-based or functional assay.
Regarding B1, the “IVK, HxUPK1B, 250pM, fz, % live” value came out at 98.3 % live.

On to B2, for which the “IVK, HxUPK1B, 250pM, fz, % live” value amounted to 99.4 % live. Still for that read-out and setting: under B3 stands 103 % live; under B4, 22.2 % live; under B5, 22.9 % live. B6: the “IVK, HxUPK1B, 250pM, fz, % live” value is 48.7 % live.

Turning to B7, the “IVK, HxUPK1B, 250pM, fz, % live” value stood at 17.6 % live. The same measure, in the same setting: in the case of B8 it was 20.4 % live; in that of B9, 100 % live.

Regarding B10, the “IVK, HxUPK1B, 250pM, fz, % live” value turned out to be 89 % live.

Take B11: the “IVK, HxUPK1B, 250pM, fz, % live” value worked out at 23.1 % live.

The target in the next assay is T2, hUPK1B(108-229)-Fc, second …. Kind of assay: SPR, Biacore T200; human UPK1B Fc-fusion captured on anti-human chip, papain-digested Fab as analyte, 1:1 Langmuir fit.
Protocol: The kinetic characteristics and affinities of the anti-UPK1B antibodies for human UPK1B protein was determined by surface plasmon resonance using a Biacore T200 (GE Healthcare). An anti-human antibody capture kit was used to immobilize anti-human antibodies on a CM5 biosensor chip. Then, in independent flow cells, CHO expressed Fc-fusion human UPK1B protein was immobilized. Prior to each anti-UPK1B antibody Fab fragment injection cycle, the human Fc-fusion protein was captured at a concentration of 1 μg/mL on the surface with a contact time of 12 seconds and a flow rate of 20 μL/min. […] The CM5 anti-human chip surface was regenerated with 1 min. contact time of 10 mM Glycine, pH 1.7 at 10 μL/min. following each cycle.
The data was processed by subtracting a control irrelevant human Fc-fusion protein surface response from the specific human UPK1B Fc-fusion protein surface response and data was truncated to the association and dissociation phase. The resulting response curves were used to evaluate the kinetic characteristics of the antibodies for experiments done on the Biacore T200. Association and dissociation data was fit with a 1:1 langmuir binding model using the Biacore T200 Evaluation Software (GE Healthcare).
B12 displayed a dissociation constant Kd of 6.4 nM.

A further assay has as its target T1, human UPK1B (hUPK1B) protein, full …. Briefly: cell-based or functional assay. The source holds these as a separate data set.
For B13, the “IVK, HxUPK1B, 250pM, fz, % live [cont.]” value is 105 % live. The same measure, in the same setting: under B14 stands 55.7 % live.

Regarding B15, the “IVK, HxUPK1B, 250pM, fz, % live [cont.]” value stood at 28.2 % live. For B16, the “IVK, HxUPK1B, 250pM, fz, % live [cont.]” value was found to be 19.3 % live. In the case of B17, the “IVK, HxUPK1B, 250pM, fz, % live [cont.]” value is 25.6 % live.

Take B18: the “IVK, HxUPK1B, 250pM, fz, % live [cont.]” value worked out at 104 % live. On the same count and under the same terms, in the case of B19 it was 17.2 % live.

Usually Kd stands for the equilibrium constant for the complex coming apart. Higher therefore signals weaker binding.
